Target: recombinant soluble tissue factor sTF (1–219) (UniProt P13726)
Chain of UniProt P13726 (P13726 33-251): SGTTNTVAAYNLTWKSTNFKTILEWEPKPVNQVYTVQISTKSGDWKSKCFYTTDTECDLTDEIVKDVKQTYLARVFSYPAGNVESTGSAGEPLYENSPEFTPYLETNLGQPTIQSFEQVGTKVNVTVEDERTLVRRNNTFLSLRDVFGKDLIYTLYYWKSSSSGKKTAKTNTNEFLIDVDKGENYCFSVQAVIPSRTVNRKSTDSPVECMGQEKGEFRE

activation of FX in solution, kcat/KM: 663 M⁻¹ s⁻¹
Substance: coagulation factor VIIa (FVIIa) (enzyme)

— publication PMC5703266
